US20060257938A1, “Method of screening for drugs that block ligand binding to a lipid binding protein” (priority 2005, published 2006)
“And” between values parts separate entries of the source, which are not always exact repeats. Equal entries are not always repeated.

B1: 117S, 72A (protein, listed as Rattus norvegicus)
chain: AFDGTWKVDRNENYEKFMEKMGINVVKRKLGAHDNLKLTITQEGNKFTVKESSNFRNIDVVFELGVDFAYSAADGTELTGTWTMEGNKLVGKFKRVDNGKELIAVREISGNELIQTSTYEGVEAKRIFKKE
modifications: PEPTIDE (1)...(131) wild-type rat intestinal fatty acid binding protein
B2: 117T, 72A (protein, listed as Rattus norvegicus)
chain: AFDGTWKVDRNENYEKFMEKMGINVVKRKLGAHDNLKLTITQEGNKFTVKESSNFRNIDVVFELGVDFAYSAADGTELTGTWTMEGNKLVGKFKRVDNGKELIAVREISGNELIQTTTYEGVEAKRIFKKE
modifications: PEPTIDE (1)...(131) wild-type rat intestinal fatty acid binding protein
B3: 119K, 72A (protein, listed as Rattus norvegicus)
chain: AFDGTWKVDRNENYEKFMEKMGINVVKRKLGAHDNLKLTITQEGNKFTVKESSNFRNIDVVFELGVDFAYSAADGTELTGTWTMEGNKLVGKFKRVDNGKELIAVREISGNELIQTYTKEGVEAKRIFKKE
modifications: PEPTIDE (1)...(131) wild-type rat intestinal fatty acid binding protein
B4: 117W, 72A (protein, listed as Rattus norvegicus)
chain: AFDGTWKVDRNENYEKFMEKMGINVVKRKLGAHDNLKLTITQEGNKFTVKESSNFRNIDVVFELGVDFAYSAADGTELTGTWTMEGNKLVGKFKRVDNGKELIAVREISGNELIQTWTYEGVEAKRIFKKE
modifications: PEPTIDE (1)...(131) wild-type rat intestinal fatty acid binding protein
B5: 119F, 72A (protein, listed as Rattus norvegicus)
chain: AFDGTWKVDRNENYEKFMEKMGINVVKRKLGAHDNLKLTITQEGNKFTVKESSNFRNIDVVFELGVDFAYSAADGTELTGTWTMEGNKLVGKFKRVDNGKELIAVREISGNELIQTYTFEGVEAKRIFKKE
modifications: PEPTIDE (1)...(131) wild-type rat intestinal fatty acid binding protein
B6: 119H, 72A (protein, listed as Rattus norvegicus)
chain: AFDGTWKVDRNENYEKFMEKMGINVVKRKLGAHDNLKLTITQEGNKFTVKESSNFRNIDVVFELGVDFAYSAADGTELTGTWTMEGNKLVGKFKRVDNGKELIAVREISGNELIQTYTHEGVEAKRIFKKE
modifications: PEPTIDE (1)...(131) wild-type rat intestinal fatty acid binding protein
B7: 102E, 72A (protein, listed as Rattus norvegicus)
chain: AFDGTWKVDRNENYEKFMEKMGINVVKRKLGAHDNLKLTITQEGNKFTVKESSNFRNIDVVFELGVDFAYSAADGTELTGTWTMEGNKLVGKFKRVDNGKEEIAVREISGNELIQTYTYEGVEAKRIFKKE
modifications: PEPTIDE (1)...(131) wild-type rat intestinal fatty acid binding protein
B8: 117Y, 72A (protein, listed as Rattus norvegicus)
chain: AFDGTWKVDRNENYEKFMEKMGINVVKRKLGAHDNLKLTITQEGNKFTVKESSNFRNIDVVFELGVDFAYSAADGTELTGTWTMEGNKLVGKFKRVDNGKELIAVREISGNELIQTYTYEGVEAKRIFKKE
modifications: PEPTIDE (1)...(131) wild-type rat intestinal fatty acid binding protein
B9: 119Q, 72A (protein, listed as Rattus norvegicus)
chain: AFDGTWKVDRNENYEKFMEKMGINVVKRKLGAHDNLKLTITQEGNKFTVKESSNFRNIDVVFELGVDFAYSAADGTELTGTWTMEGNKLVGKFKRVDNGKELIAVREISGNELIQTYTQEGVEAKRIFKKE
modifications: PEPTIDE (1)...(131) wild-type rat intestinal fatty acid binding protein
B10: 119G, 72A (protein, listed as Rattus norvegicus)
chain: AFDGTWKVDRNENYEKFMEKMGINVVKRKLGAHDNLKLTITQEGNKFTVKESSNFRNIDVVFELGVDFAYSAADGTELTGTWTMEGNKLVGKFKRVDNGKELIAVREISGNELIQTYTGEGVEAKRIFKKE
modifications: PEPTIDE (1)...(131) wild-type rat intestinal fatty acid binding protein
B11: 117V, 72A (protein, listed as Rattus norvegicus)
chain: AFDGTWKVDRNENYEKFMEKMGINVVKRKLGAHDNLKLTITQEGNKFTVKESSNFRNIDVVFELGVDFAYSAADGTELTGTWTMEGNKLVGKFKRVDNGKELIAVREISGNELIQTVTYEGVEAKRIFKKE
modifications: PEPTIDE (1)...(131) wild-type rat intestinal fatty acid binding protein
B12: 119A, 72A (protein, listed as Rattus norvegicus)
chain: AFDGTWKVDRNENYEKFMEKMGINVVKRKLGAHDNLKLTITQEGNKFTVKESSNFRNIDVVFELGVDFAYSAADGTELTGTWTMEGNKLVGKFKRVDNGKELIAVREISGNELIQTYTAEGVEAKRIFKKE
modifications: PEPTIDE (1)...(131) wild-type rat intestinal fatty acid binding protein
B13: 119C, 72A (protein, listed as Rattus norvegicus)
chain: AFDGTWKVDRNENYEKFMEKMGINVVKRKLGAHDNLKLTITQEGNKFTVKESSNFRNIDVVFELGVDFAYSAADGTELTGTWTMEGNKLVGKFKRVDNGKELIAVREISGNELIQTYTCEGVEAKRIFKKE
modifications: PEPTIDE (1)...(131) wild-type rat intestinal fatty acid binding protein
B14: 119I, 72A (protein, listed as Rattus norvegicus)
chain: AFDGTWKVDRNENYEKFMEKMGINVVKRKLGAHDNLKLTITQEGNKFTVKESSNFRNIDVVFELGVDFAYSAADGTELTGTWTMEGNKLVGKFKRVDNGKELIAVREISGNELIQTYTIEGVEAKRIFKKE
modifications: PEPTIDE (1)...(131) wild-type rat intestinal fatty acid binding protein

Experiments:
Format in all cases: binding
[1] = Probe fluorescence ratio response to linoleic acid relative to ADIFAB2; details: response relative to ADIFAB2
Description: (§1) In an alternate preferred embodiment, the protein is rI-FABP that has Ala substituted for Leu at position 72 (rI-FABP-L72A) with the resulting probe named ADIFAB2. […] Other probes useful in embodiments of the invention are shown in Tables 1-6 and are also described in U.S. application Ser. No. 11/085,792, filed Mar. 21, 2005 which is incorporated herein by reference. The indicated substitutions are with reference to the ADIFAB protein of SEQ ID NO: 2.
(§2) ADIFAB2 also has an altered spectral response, making it especially useful for measurements of FFAu in blood samples (Apple et al, Clinical Proteomics, (2004) 1:41-44, U.S. patent application Ser. No. 10/670,958). The wavelengths at the maximum intensities emitted by these fluorescently-labeled I-FABP's in the absence of FFA is about 420 to 480 nm. The emission wavelengths at the maximum intensities emitted by these fluorescently-labeled I-FABP's with FFA bound are between about 495 to 580 nm. Experiments typically involve measuring the fluorescence response within both emission maxima or at wavelengths for which the effect of interfering molecules such as hemoglobin can be eliminated as described in U.S. application Ser. No. 10/670958 and PCT/US2004/030521 and the calculation of the ratio ‘R’ of the two fluorescence intensities. The baseline value for this ratio, measured in the absence of analyte, is designated R0.
(§3) The intensity ratio (“R” value) is determined as follows. The ratio is calculated using the following formula: R=Fλ1/Fλ2 wherein, Fλ1 is the measured fluorescence intensities (intensity of sample with probe present minus intensity of sample without probe present) at wavelength 1 and Fλ2 is the measured fluorescence intensities (intensity of sample with probe present minus intensity of sample without probe present) at wavelength 2. Then, for a given probe, ΔR, the difference in R value between the measurement in the presence of the test compound (agent) and in the absence of the test compound (agent), is calculated as follows: ΔR=R+agent−R0 In some embodiments, the ΔR value may then be compared to some reference, for example, an agent with a known affinity for a given probe, by ΔR/ΔRreference. Measurements of fluorescence intensities are obtained using standard techniques.

[2] = Probe fluorescence ratio response to palmitic acid relative to ADIFAB2; details: response relative to ADIFAB2
Description: as §1, §2, §3

[3] = Probe fluorescence ratio response to linolenic acid relative to ADIFAB2; details: response relative to ADIFAB2
Description: as §1, §2, §3

[4] = Probe fluorescence ratio response to arachidonic acid relative to ADIFAB2; details: arachidonic acid; response relative to ADIFAB2
Description: as §1, §2, §3

[5] = Probe fluorescence ratio response to oleic acid relative to ADIFAB2; details: response relative to ADIFAB2
Description: as §1, §2, §3

Molecule	DR/DR LA [1]	DR/DR PA [2]	DR/DR LNA [3]	DR/DR AA [4]	DR/DR OA [5]
B1	1.42 and 1.533	0.55 and 0.593	1.07 and 1.133	1.35 and 1.467	1.19 and 1.258
B2	0.92 and 0.917	0.57 and 0.567	0.77 and 0.775	0.79 and 0.791	0.81 and 0.813
B3	0.85	0.58	0.78	0.78	0.87
B4	0.45 and 0.446	0.34 and 0.339	0.46 and 0.461	0.55 and 0.551	0.39 and 0.388
B5	0.90	0.69	0.93	0.93	0.94
B6	0.63	0.32	0.67	0.71	0.59
B7	0.65	0.30	0.89	0.56	0.60
B8	1.44	1.14	1.40	1.35	1.36
B9	0.58	0.35	0.62	0.60	0.60
B10	0.77	0.46	0.81	0.83	0.78
B11	0.94 and 0.924	0.49 and 0.498	0.81 and 0.767	0.82 and 0.805	0.81 and 0.774
B12	0.61 and 0.450	0.30 and 0.200	0.65 and 0.520	0.70 and 0.540	0.63 and 0.490
B13	1.02 and 1.022	0.35 and 0.355	1.00 and 1.001	1.06 and 1.063	0.97 and 0.971
B14	1.10 and 0.960	0.69 and 0.720	1.06 and 0.940	1.01 and 0.920	1.08 and 1.050
